Test results published in patent US20050053994.

B1: human LS-DNase (protein)
chain: MRICSFNVRSFGESKQEDKNAMDVIVKVIKRCDIILVMEIKDSNNRICPILMEKLNRNSRRGITYNYVISSRLGRNTYKEQYAFLYKEKLVSVKRSYHYHDYQDGDADVFSREPFVVWFQSPHTAVKDFVIIPLHTTPETSVKEIDELVEVYTDVKHRWKAENFIFMGDFNAGCSYVPKKAWKNIRLRTDPRFVWLIGDQEDTTVKKSTNCAYDRIVLRGQEIVSSVVPKSNSVFDFQKAYKLTEEEALDVSDHFPVEFKLQSSRAFTNSKKSVTLRKKTKSKRS
B2: human DNase I (protein)
chain: LKIAAFNIQTFGETKMSNATLVSYIVQILSRYDIALVQEVRDSHLTAVGKLLDNLNQDAPDTYHYVVSEPLGRNSYKERYLFVYRPDQVSAVDSYYYDDGCEPCGNDTFNREPAIVRFFSRFTEVREFAIVPLHAAPGDAVAEIDALYDVYLDVQEKWGLEDVMLMGDFNAGCSYVRPSQWSSIRLWTSPTFQWLIPDSADTTATPTHCAYDRIVVAGMLLRGAVVPDSALPFNFQAAYGLSDQLAQAISDHYPVEVMLK

Target: actin

Protein	DNA-hydrolytic activity in plasmid nicking assay (supercoiled pBR322, agarose gel)
B1	the DNA-hydrolytic activity of LS-DNase was not inhibited by concentrations of actin that fully inhibited human DNase I
B2	the DNA-hydrolytic activity of human DNase I was inhibited by added actin in a concentration-dependent manner
